# Results as given in article PMC9825591.
# Assays:
# [1] = biological target: EPYC1-GFP (Chlamydomonas reinhardtii); assay: fluorescence correlation spectroscopy (FCS); 10 nM EPYC1-GFP with varying concentrations of unlabeled Rubisco in solution, one-phase region (no condensates); 20 mM Tris-HCl, 50 mM NaCl, pH 8.0; PEI-g-PEG coated coverslip; EPYC1-GFP diffusion coefficient against Rubisco concentration fitted with a quadratic binding equation; the authors consider the Kd an upper bound
# [2] = biological target: EPYC1-GFP (Chlamydomonas reinhardtii); assay: fluorescence correlation spectroscopy (FCS); dilute phase of a phase-separated mixture, alongside condensates: EPYC1-GFP fixed at 20 nM, unlabeled EPYC1 1 to 4 μM, Rubisco 0.05 to 2 μM; laser aimed at a region away from condensates
substance,measurement,setting,value
"Ribulose-1,5-bisphosphate carboxylase/oxygenase (Rubisco) holoenzyme, wildtype (from UniProt P00877 3-475; P00873 46-185) (complex)",Kd,[1],0.029 µM
same,Rubisco holoenzymes per EPYC1-Rubisco complex,[1],1
same,Rubisco holoenzymes per EPYC1-Rubisco complex,[2],1
